Experimental data taken from patent publication US20130039916A1 (Merck Sharp & Dohme, published 2013).

T1: "Non-linked" human IL-23 (human p40 coexpressed in 293T cells with human p19:FLAG-tag peptide) (human, UniProt P29460 23-328)
T1 sequence 1: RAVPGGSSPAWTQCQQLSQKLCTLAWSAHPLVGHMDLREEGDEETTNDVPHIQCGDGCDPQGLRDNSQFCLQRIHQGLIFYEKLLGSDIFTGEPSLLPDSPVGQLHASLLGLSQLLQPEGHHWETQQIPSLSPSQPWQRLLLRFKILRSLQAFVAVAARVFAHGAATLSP
T1 sequence 2: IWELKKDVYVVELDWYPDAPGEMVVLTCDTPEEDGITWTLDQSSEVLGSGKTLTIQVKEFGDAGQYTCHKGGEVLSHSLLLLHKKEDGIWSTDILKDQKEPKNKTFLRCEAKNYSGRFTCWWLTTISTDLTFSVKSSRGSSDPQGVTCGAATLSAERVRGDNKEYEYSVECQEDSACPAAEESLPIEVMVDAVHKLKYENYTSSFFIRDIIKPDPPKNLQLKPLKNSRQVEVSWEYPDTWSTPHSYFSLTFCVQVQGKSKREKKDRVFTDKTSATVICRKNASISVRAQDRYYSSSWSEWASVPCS

T2: human IL-23 (form not stated) (human, UniProt P29460 23-328)
T2 sequence 1: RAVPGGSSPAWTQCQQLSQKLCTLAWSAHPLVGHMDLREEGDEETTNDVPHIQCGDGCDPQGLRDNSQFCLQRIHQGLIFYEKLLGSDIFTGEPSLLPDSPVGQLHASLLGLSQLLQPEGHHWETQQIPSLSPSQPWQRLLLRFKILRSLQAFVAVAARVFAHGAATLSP
T2 sequence 2: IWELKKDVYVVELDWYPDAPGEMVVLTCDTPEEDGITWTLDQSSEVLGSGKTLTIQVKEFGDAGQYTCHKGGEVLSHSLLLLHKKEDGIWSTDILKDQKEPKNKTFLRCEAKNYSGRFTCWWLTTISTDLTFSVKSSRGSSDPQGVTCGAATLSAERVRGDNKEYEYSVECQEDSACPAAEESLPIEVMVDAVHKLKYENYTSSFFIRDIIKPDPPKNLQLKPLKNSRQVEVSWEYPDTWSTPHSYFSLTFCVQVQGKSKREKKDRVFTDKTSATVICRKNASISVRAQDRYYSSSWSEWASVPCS


Tests used:
[1] = target: T1, "Non-linked" human IL-23 (human p40 …); experiment: cell-based or functional assay
[2] = target: T2, human IL-23 (form not stated); experiment: cell-based or functional assay
[3] = target: "Elastikine" human IL-23 (single chain FLAG-tag:GLU-tag:human p40:elasti-linker:human p19, expressed in 293T … (human, UniProt P29460 23-328)); experiment: KinExA, solution equilibrium
Chain of "Elastikine" human IL-23 (single chain FLAG-tag:GLU-tag:human p40:elasti-linker:human p19, expressed in 293T … (P29460 other isoform, or with tags, fused parts or gaps): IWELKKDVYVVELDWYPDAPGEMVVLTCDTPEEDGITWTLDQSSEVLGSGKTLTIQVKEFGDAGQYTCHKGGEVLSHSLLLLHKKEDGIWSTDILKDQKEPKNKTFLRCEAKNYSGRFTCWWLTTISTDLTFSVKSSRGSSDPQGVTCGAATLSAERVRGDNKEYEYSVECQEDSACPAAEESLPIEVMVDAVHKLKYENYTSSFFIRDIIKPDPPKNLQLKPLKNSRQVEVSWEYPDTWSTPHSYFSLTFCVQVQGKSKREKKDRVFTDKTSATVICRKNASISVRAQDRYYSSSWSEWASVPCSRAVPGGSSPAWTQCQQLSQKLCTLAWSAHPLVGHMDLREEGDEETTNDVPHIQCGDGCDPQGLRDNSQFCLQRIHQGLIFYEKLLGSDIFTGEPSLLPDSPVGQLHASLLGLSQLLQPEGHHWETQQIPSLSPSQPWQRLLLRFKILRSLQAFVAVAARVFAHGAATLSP
Method: The equilibrium dissociation constant (Kd) for anti human IL-23 antibodies is determined using the KinExA 3000 instrument. Sapidyne Instruments Inc., Boise Id., USA KinExA uses the principle of the Kinetic Exclusion Assay method based on measuring the concentration of uncomplexed antibody in a mixture of antibody, antigen and antibody-antigen complex. The concentration of free antibody is measured by exposing the mixture to a solid-phase immobilized antigen for a very brief period of time. In practice, this is accomplished by flowing the solution phase antigen-antibody mixture past antigen-coated particles trapped in a flow cell. Data generated by the instrument are analyzed using custom software. Equilibrium constants are calculated using a mathematical theory based on the following assumptions:
98 micron PMMA particles (Sapidyne, Cat No. 440198) are coated with biotinylated rhIL-23 according to Sapidyne “Protocol for coating PMMA particles with biotinylated ligands having short or nonexistent linker arms”. To make biotinylated rhIL-23, EZ-link TFP PEO-biotin (Pierce, Cat. No. 21219) is used according to manufacturer's recommendations (Pierce bulletin 0874). Experimental procedures are done according to the KinExA 3000 manual.
KinExA experiments are performed essentially as described at Example 3 of U.S. Patent Application Publication No. 2007/0048315.

Binder	IC50 (pM), blocking of Ba/F3 cell proliferation [1]	Splenocyte assay IC50 (IL-17 production by mouse splenocytes) [2]	Kd [3]
mouse anti-human IL-23p19 antibody 17G8 (antibody, V domains shown) VH: QAQLQQSGSELARPGASVKLSCKASGYTFTSYGIKWVKQRTGQGLEWIGEIFPRSGQTIYNENFKGKATLTADKSSSTAYMELRSLTSEDSAVYFCAANWDLDYWGQGTILTVSS VL: DIMMTQSPATLSVTPGDRVSLSCRASQSISDYLHWYRQKSHESPRLLIKYASQSISGIPSRFSGSGSGSDFTLSINSVEPEDVGIYYCQNGHSFPYTFGGGTKLEIKR	3 pM	0.018 nM	–
mouse anti-human IL-23p19 antibody 2G12 (antibody, V domains shown) VH: EVQLQQSGPELVKPGASVKMSCKASGYTFTCCILHWVKQKPGQGLEWIGYINPYNDGTKYNEKFKGKATLTSDKSSRTAYMELSSLTSEDSAVYYCARRWDEAYWGQGTLVTVSA VL: DIVMTQSPATLSVTPGDRVSLSCRASQSISAYLHWYQQKSHESPRLLIKYASQSISGIPSRFSGSGSGSDFTLSINSVEPEDVGIYYCQNGHSFPFTFGSGTKLEIKR	183 pM	0.106 nM	–
mouse anti-human IL-23p19 antibody 15G2 (antibody, V domains shown) VH: EVQLQQSGPELVKPGASVKMSCKASGYTFTNYLMHWVKQKPGQGLEWIGYINPYNDGTNYNEKFKGKATLTSDKSSSTAYMELSSLTSEDSAIYFCTSNWDLDYWGQGTTLTVSS VL: DIVMTQSPATLSVTPGDRVSLSCRASQSISDYLHWYQQKSHESPRLLIKYASQSISGIPSRFSGSGSGSDFILNINSVEPEDVGVYYCQNGHSFPYTFGGGTKLEIKR	133 pM	0.095 nM	–
mouse anti-human IL-23p19 antibody 18E1 (antibody, V domains shown) VH: EVQLQQSGPELVKPGASVKMSCKASGNTFTRYVMNWVKQKPGQGLEWIGYINPYNDGTNYNEKFKGKATLTSDKSSTTAYMELSSLTSEDSAVYYCVHNWDLDYWGQGTTLTVSS VL: DIVMTQSPATLSVTPGDRVSLSCRASQSISHYLYWYQQKSHESPRLLIKYASQSISGIPSRFSGSGSGSDFTLSINSVEPEDVGMYYCQNGHSFPYTFGGGTKLEIKR	48 pM	0.092 nM	–
mouse anti-human IL-23p19 antibody 2C6 (antibody, V domains shown) VH: EVQLQQSGPELVKPGASVKMSCKASGYTFTRYLIHWVKQKPGQGLEWIGYVNPYNDGTNYNEKFRGKATLTSDKSSSTAYMELSSLTSEDSAVYYCTSNWDLNYWGQGTTLTVSS VL: DIVMTQSPATLSVTPGDRVSLSCRASQSISDYLYWYQQKSHESPRLLIKYASQSISGIPSRFSGSGSGSDFTLSINSVEPEDVGVYFCQNGHSFPFTFGSGTKLEIKR	11 pM	0.037 nM	–
mouse anti-human IL-23p19 antibody 8E9 (antibody, V domains shown) VH: EVQLQQSGPELVKPGASVKMSCKASGYTFTAYLIHWVKQSHGKSLEWIGYINPNNGGTNYNQKFKDKATLTVNKSSATAYMELRSLTSEDSAVFYCSSNWDLDYWGRGTTLTVSS VL: DIVMTQSPATLSVTPGDRVSLSCRASQSIGDYLHWYQQKLHESPRLLIKYASRSISGIPSRFSGSGSGSYFTLSINSVEAEDVGVYFCQNGHSFPFTFGSGTKLEIKR	8 pM	0.034 nM	–
mouse anti-human IL-23p19 antibody 1D6 (antibody, V domains shown) VH: EVQLQQSGPDLVKPGASVKMSCKASGYTFTAYLIHWVKRSHGKSLDWIGYINPNDGVTSYNQKFKGKATLTVNKSSGTAYMELRSLTSEDAAVYYCTLNWDLDYWGQGTTLTVSS VL: DIVMTQSPATLSVTPGDRVSLSCRASQSISDYLHWYQQKSHESPRLLIKYASQSISGIPSRFSGSGSGSDFTLSITNVEPEDVGIYYCQNGHSFPFTFGSGTKLEIKR	16 pM	0.027 nM	–
mouse anti-human IL-23p19 antibody 20A4 (antibody, V domains shown) VH: QAQLQQSGGELARPGASVKLSCKASGYTFTSYGIKWVKQGTGQGLEWIGEIFPRSGQTYYNEKFKGKATLTADKSSSTAYMELRSLTSEDSAVYFCASNWDLDYWGQGTILTVSS VL: DIVMTQSPATLSVTPGDRVSLSCRASQSISDFLHWYRQKSHESPRLLIKYVSQSISGIPSRFSGSGSGSDFTLSINSVDPEDVGVYYCQNGHSFPYTFGGGTKLEIKR	5 pM	0.024 nM	–
mouse anti-human IL-23p19 antibody 20H7 (antibody, V domains shown) VH: QAQLQQSGGELARPGASVKLSCKASGYTFTNYGIKWVKQRTGQGLEWIGEIFPRSGQTIYNEKFKGKATLTADKSSSTAYMELRSLTFEDSAVYFCAANWDLDYWGQGTILTVSS VL: DIMMTQSPATLSVTPGDRVSLSCRASQSISDYLHWYRQKSHESPRLLIKYASQSISGIPSRFSGSGSGSDFTLSINSVEPEDVGVYFCQNGHSFPYTFGGGTKLEIKR	3 pM	0.033 nM	–
mouse anti-human IL-23p19 antibody 3C4 (antibody, V domains shown) VH: QVQLQQSGGELARPGASVKLSCKASGYTFTSYGIKWVKQRFGQGLEWIGEIFPRGGNTYYNEKFKGKATLTADKSSSTAYMELRSLTSEDSAVYFCTANWDLDYWGQGTTLTVSS VL: DIVMTQSPATLSVTPGDRVSLSCRASQSISDYLHWYQQKSHESPRLLIKYASQSISGIPSRFSGSGSGSDFTLSINSVESEDVGVYYCQNGHSFPFTFGSGTKLKIKR	12 pM	0.014 nM	–
mouse anti-human IL-23p19 antibody 16F7 (antibody, V domains shown) VH: EVQLVESGGDLVKPGGSLKLSCAASGFIFNSYGMSWVRQTPDKRLEWVATISSGGRNTYYPDSVKGRFTISRDNAKNTLYLQMSSLKSEDTAMYYCARQGGYEGYVDVWGIGTTVTVSS VL: DIVMTQSHRFMSTSVGDRVSITCKASQDVSSAVAWYQQKPGQSPNLLIYSASFRNTGVPDRFTGSGSGTDFTFTISGVQAEDLAVYYCQQHHSTPLTFGAGTKLELKR	141 pM	0.155 nM	–
mouse anti-human IL-23p19 antibody 14A3 (antibody, V domains shown) VH: EVILVESGGGFVKPGGSLKLSCAASGFTFSNYGMSWVRQTPDKGLEWVATISTGGRYIYYSDTVKGRFTISRDNAKSTLYLKMSSLRSEDTAVHFCARHEGDRYYGWYFDVWGAGTTVTVSS VL: DIVLTQSPASLAVSLGQRATISCKASQSVDYDGESYMNWYQQKPGQPPKLLIYTSSSLASGIPARFSGSGSGTNFTLNIHPVEEEDAATYCCQQGNEDLFTFGSGTKLEIKR	135 pM	0.053 nM	–
mouse anti-human IL-23p19 antibody 12C11 (antibody, V domains shown) VH: EVMLVESGGGLVKPGGSLKLSCAASGFTFSNYGMSWVRQSPERGLEWVATISTGGRYTFYSDTVKGRFTISRDNARNTLYLKMSSLISEDTAVHYCARHEGDTYYGWYFDVWGAGTTVTVSS VL: DIVLTQSPASLAVSLGQRATISCKASHSVDYDVDSFMNWYQQKPGQPPKLLIFASSSLESGIPARFSGSGSGTNFILNIHPVEEEDAATYYCQQGNEDLFTFGSGTKLEIKR	57 pM	0.079 nM	–
mouse anti-human IL-23p19 antibody 7D7 (antibody, V domains shown, also called m7D7) VH: QVQLQQSGAELAKPGASVKLSCKASGYTFTNYWMDWVKQRPGQGLEWIGYINPSSGYVEYNQKFKYKATLTADKTSSTAYMQLSSLTYDDSAVYYCARSPPYYYANTYWSFDVWGTGTTVTVSS VL: DIGLTQSPASLAVSLGQRATISCRASKSVSTSGYSFMHWYQQKPGQPPKLLIYLASNLESGVPARFSGSGSGTDFILNIHPVEEEDAATYYCQHSRELPLAFGAGTKLELTP	–	–	0.0027 nM
mouse anti-human IL-23p19 antibody 49A10 (antibody, V domains shown, also called m49A10) VH: EVQLQQSGPELVKPGASVKISCKASGYTFTDYYMNWVKQSHGKSLEWFGDINPNNGDTSYNQKFKGKATLTVDKSSSTAYMELRSLTSEDSADYYCARPHYRNWYFDVWGTGTTVIVSS VL: DIVLTQSPASLVVSLGQRATISCRASKSVSTSGYSFLNWYQQKPGQPPKLLIYLASNLESGVPARFSGSGSGTDFTLNIHPVEAEDATTYYCQHSRELPLTFGSGTKLEMKR	–	–	0.0074 nM
mouse anti-human IL-23p19 antibody 13F11 (antibody, V domains shown, also called m13F11) VH: EVQLQQSGPELVKPGASVKMSCKASGHTLTRYLMHWVQQKPGQGLEWIGYINPYNDGTKYNEKFKGKATLTSDKSSSTAYMELSSLTSEDSAVYYCARNWDVAYWGQGTLVTVSA VL: DIVMTQSPATLSVTPGDRVSLSCRASQTISDYLHWYQQKSHESPRLLIKYASQSISGIPSRFSGSGSGSHFTLSINSVEPEDVGVYYCQNGHSFPFTFGSGTKLEIKR	–	–	0.011 nM
